The source of these data is PMC7431705, “Angiogenesis Inhibition by a Short 13 Amino Acid Peptide Sequence of Tetrastatin, the α4(IV) NC1 Domain of Collagen IV” (Frontiers in Cell and Developmental Biology, 2020).

What is called Kd is the concentration at which binding is half-saturated.

Where a SMILES comes first, the peptide text is derived from it. Bridges are numbered along the chain shown (N, C = ends).

The test system of one test is HUVEC adhesion on QS-13. The test can be described thus: HUVEC adhesion on QS-13 coating with effector preincubation. In kind it is cell-based, Human. As to conditions: peptide 20 μg/mL (legend Figure 5), 30 min preincubation; adhesion 60 min; n = 8, p < 0.001. The method, then:
Cells were detached with 50 mM Hepes, 125 mM NaCl, 5 mM KCl, and 1 mM EDTA, washed three times with ECGM, pre-incubated for 30 min with effectors [mouse anti-human α5β1, catalog number 555614 from BD Pharmingen (10 μg/mL), irrelevant IgG ([…])]. 10,000 cells were seeded per well of a 96 well-plate previously coated with QS-13 and saturated with 1% BSA. After 60 min, cells were washed three times with HEPES buffered Balanced Salt Solution, fixed with 1.1% glutaraldehyde solution and stained with 1% crystal violet solution. Staining was extracted with 10% acetic acid and absorbance was read at 560 nm.
For in vitro experiments, results are expressed as the mean ± SD and statistical significance were determined using Student’s t-test. For in vivo experiments, the non-parametric Mann–Whitney test was performed.

The test system of a further test is cancer patients. Set-up: method as in 3 sources, one per row (each row's own in cited_ref): ref Besse et al., 2013 ||| ref Cianfrocca et al., 2006 ||| ref Alday-Parejo et al., 2019. As to conditions: cited from earlier work.
The next test relates to cancer. As to conditions: ref Stoeltzing et al., 2003; Khalili et al., 2006; cited from earlier work. The source says:
Peptides also emerged as important therapeutic agents in angiogenesis-dependent diseases due to their low toxicity and high specificity ([Rosca et al., 2011]).

In test [1] the target is QS-13 peptide (…), minimal active sequence of Tetrastatin, the α4(IV) NC1 domain of collagen IV.
For test [2] the target is unchanged. The source holds these as a separate data set.
Test [3] has as its system angiogenesis, tumor growth and metastasis. On the set-up: method as in Almokadem and Belani, 2012. As to conditions: mice; ref Almokadem and Belani, 2012; cited from earlier work.
The target in test [4] is T1, α5β1 integrin (Homo sapiens, UniProt P05556+P08648).
T1 construct: purchased R&D Systems 3230-A5-050
The test can be described thus: Surface plasmon resonance (Biacore T200). The class given is binding. As to conditions: biotinylated QS-13 (QKISRCQVCVKYSK-biot) captured on streptavidin CM5 chip; α5β1 integrin 0.12-130 nM; HBS pH 7.4, 3.4 mM EDTA, 0.05% P20, 25°C; Req fitted to 1:1 model. The protocol:
All experiments were performed on a Biacore T200 instrument (GE Healthcare) at 25°C. Sensor surfaces and other Biacore consumables were purchased from GE Healthcare. Integrin α5β1 was from R&D Systems. The running buffer, HEPES buffered saline (HBS, composed of 0.01 M HEPES, pH 7.4, 0.15 M NaCl, 3.4 mM EDTA) was filtered through a 0.22 μm membrane and supplemented with 0.05% P20. Biotinylated peptides were captured on streptavidin-coated sensor chips. Briefly, CM5 sensor chips (GE Healthcare) were preconditioned by duplicate injections of 10 mM HCl, 50 mM NaOH, each for 10 s, and water for 20 s. Before covalent immobilization of streptavidin, traces of biotinylated products that could remain in the flow system were neutralized by injecting a streptavidin solution (0.1 mg/mL in running buffer) for 5 min through all flow cells ([Baltzinger et al., 2013]). Streptavidin was then stably immobilized using standard amine-coupling methods. The flow rate was 10 μL/min. […] The equilibrium response (Req) was recorded 5 s before the end of integrin injection. The KD was determined by fitting the equilibrium response versus the [integrin] curve to a simple 1:1 interaction model with the Biacore T200 evaluation software (GE Healthcare).
A general note: Surface plasmon resonance follows binding to a sensor surface in real time, without labels.

For test [5], the target named is Biotinylated QS-13 (…-biot). Kind of test: SPR; Biacore T200, 25°C; biotinylated QS-13 captured on a streptavidin-coated CM5 chip; α5β1 integrin injected at 0.12-130 nM, 300 s; HBS (0.01 M HEPES pH 7.4, 0.15 M NaCl, 3.4 mM EDTA) with 0.05% P20; reference surface with an irrelevant biotinylated peptide; equilibrium response fitted to a 1:1 model.
Test [6] deals with T1, α5β1 integrin. Kind of test: Solid phase assay, binding to coated integrin. As to conditions: coated 25 nM α5β1 integrin; biotinylated QS-13 90 min, room temperature, 1 mM MgCl2 and CaCl2; streptavidin-peroxidase/TMB 450 nm; n = 4, 2 experiments. The protocol: Wells of a 96-well plate were coated with 25 nM α5β1 integrin (3230-A5-050; R&D Systems, Lille, France) in amounts overnight at room temperature. The coating was then blocked with TBS containing 5% dry milk, 1 mM MgCl2, and 1 mM CaCl2 for 2 h at room temperature. After washing three times with washing buffer (0.1% dry milk, 1 mM MgCl2, and 1 mM CaCl2 in TBS), the plate was incubated for 90 min at room temperature with 100 μL per well of ranging from 1.25 to 20.10^–11 moles/well biotinylated-QS-13 diluted in washing buffer. After 3 washes, 100 μL of streptavidin-peroxidase diluted 1/20000 in washing buffer were added to each well and incubated for 15 min at room temperature. After 4 washes, 100 μL per well of tetramethylbenzidine (TMB), a peroxidase substrate, were added and incubated in the dark for 15 min. The enzymatic reaction was stopped by adding 50 μL per well of 0.5 M H2SO4. The intensity of the yellow coloration was measured at 450 nm with a Biochrom Asys UVM 340 microplate reader.

Test [7] deals with T1, α5β1 integrin. Set-up: method as in Sudhakar et al., 2003. As to conditions: ref Sudhakar et al., 2003; cited from earlier work.
The subject of another test is angiogenesis. As to conditions: ref Petitclerc et al., 2000; Wietecha et al., 2013; Monboisse et al., 2014; cited from earlier work. The source says: Basement membrane are composed of type IV collagen in association with other minor collagens, such as collagens XVIII or XIX, laminins, nidogens, and perlecan. Type IV collagen is composed of three α(IV) chains, out of six possible [α1(IV)-α6(IV)]. Each α(IV) chain comprises a 7S N-terminal domain, a long interrupted triple helical domain and a globular C-terminal non-collagenous (NC1) domain ([Wu and Ge, 2019]).

Another test deals with αvβ3 integrin. As to conditions: tumor cell surface; ref Pasco et al., 2000; Brassart-Pasco et al., 2012; Lambert et al., 2018; cited from earlier work. The source says:
The NC1 domains of the different α(IV) collagen chains were reported to exert anti-tumor or anti-angiogenic effects ([Mundel and Kalluri, 2007]; [Monboisse et al., 2014]; [Brassart-Pasco et al., 2020]).

T1 sequence (P08648 42-894 limits assumed): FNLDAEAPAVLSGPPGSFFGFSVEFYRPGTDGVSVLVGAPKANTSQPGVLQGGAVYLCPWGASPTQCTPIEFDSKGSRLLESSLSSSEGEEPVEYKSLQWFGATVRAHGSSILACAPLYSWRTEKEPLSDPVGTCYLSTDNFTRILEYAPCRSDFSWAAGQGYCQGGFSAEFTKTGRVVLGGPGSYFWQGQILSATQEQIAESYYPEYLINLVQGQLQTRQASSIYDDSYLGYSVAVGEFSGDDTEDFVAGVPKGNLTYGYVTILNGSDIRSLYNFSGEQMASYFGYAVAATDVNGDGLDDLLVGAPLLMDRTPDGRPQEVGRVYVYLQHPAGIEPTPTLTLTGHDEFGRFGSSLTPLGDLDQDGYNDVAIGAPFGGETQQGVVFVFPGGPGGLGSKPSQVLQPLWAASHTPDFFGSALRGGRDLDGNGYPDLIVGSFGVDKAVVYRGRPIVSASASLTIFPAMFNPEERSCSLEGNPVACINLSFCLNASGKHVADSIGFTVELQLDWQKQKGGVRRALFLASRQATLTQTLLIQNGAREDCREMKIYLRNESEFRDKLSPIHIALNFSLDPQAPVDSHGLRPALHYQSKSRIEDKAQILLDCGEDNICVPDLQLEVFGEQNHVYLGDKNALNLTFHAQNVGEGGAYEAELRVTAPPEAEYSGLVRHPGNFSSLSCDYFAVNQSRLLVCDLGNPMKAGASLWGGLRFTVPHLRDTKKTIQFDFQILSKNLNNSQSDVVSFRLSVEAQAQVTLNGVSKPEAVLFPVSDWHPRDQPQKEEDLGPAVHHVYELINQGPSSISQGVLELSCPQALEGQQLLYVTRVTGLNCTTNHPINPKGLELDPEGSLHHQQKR
T1 sequence (P08648 895-995 partner limits assumed): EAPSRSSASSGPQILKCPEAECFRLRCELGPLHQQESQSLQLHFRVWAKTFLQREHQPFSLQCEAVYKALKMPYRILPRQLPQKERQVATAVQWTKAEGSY
T1 sequence (P05556 21-728 limits assumed): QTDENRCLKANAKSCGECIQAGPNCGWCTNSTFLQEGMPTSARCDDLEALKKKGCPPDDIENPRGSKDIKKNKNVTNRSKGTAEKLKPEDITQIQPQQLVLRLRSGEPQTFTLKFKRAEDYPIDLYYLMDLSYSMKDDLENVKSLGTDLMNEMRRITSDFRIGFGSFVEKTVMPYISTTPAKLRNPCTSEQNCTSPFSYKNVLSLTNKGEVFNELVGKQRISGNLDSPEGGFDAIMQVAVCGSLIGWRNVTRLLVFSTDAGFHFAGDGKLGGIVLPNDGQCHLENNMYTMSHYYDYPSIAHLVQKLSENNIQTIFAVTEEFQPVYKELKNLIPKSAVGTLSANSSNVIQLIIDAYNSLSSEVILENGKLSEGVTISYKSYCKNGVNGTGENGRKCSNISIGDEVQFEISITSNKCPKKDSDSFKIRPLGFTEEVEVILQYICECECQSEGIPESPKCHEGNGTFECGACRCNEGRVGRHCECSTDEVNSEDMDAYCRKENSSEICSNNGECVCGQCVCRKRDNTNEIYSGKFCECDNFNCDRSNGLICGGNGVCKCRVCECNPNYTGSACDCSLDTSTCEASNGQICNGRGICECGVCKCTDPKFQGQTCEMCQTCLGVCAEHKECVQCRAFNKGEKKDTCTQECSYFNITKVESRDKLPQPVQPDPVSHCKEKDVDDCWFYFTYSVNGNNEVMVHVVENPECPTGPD

Turning to “RGDS [RGDS peptide, RGDS peptide (Sigma)]”, the “inhibition of HUVEC adhesion on QS-13 coating (peptide competition)” value in the test with HUVEC adhesion on QS-13 is “about 60%”. As for “Ac-PHSCN-NH(2) [ATN-161, reference compound]”, in the test on cancer patients (ref Cianfrocca et al., 2006), the clinical benefit result was “failed to provide therapeutic benefits”. For the same molecule, the preclinical anti-cancer activity entry with cancer is recorded as “showed preclinical anti-cancer activities”. “α5β1 integrin of Human Umbilical Vein Endothelial Cells (HUVEC) (from UniProt P05556 21-798) (receptor)” gave an HUVEC adhesion on coated QS-13 after pre-incubation of the cells with a blocking anti-α5β1 integrin antibody (10 μg/mL): inhibition of adhesion; an irrelevant IgG had no effect in test [1] of 71%. In test [2], the HUVEC adhesion on coated QS-13 after 30 min pre-incubation of the cells with RGDS peptide: change of adhesion is -60%.

Consider “M200/volociximab: anti-α5β1 integrin antibody”, for which, in test [3], the “effect on angiogenesis, tumor growth and metastasis” value is “inhibit angiogenesis and to suppress tumor growth and metastasis in mice”. Besides, the “efficacy in advanced NSCLC” value with cancer patients (ref Besse et al., 2013) is “preliminary evidence of efficacy in advanced NSCLC”. Take `CC[C@H](C)[C@H](NC(=O)[C@H](CCCCN)NC(=O)[C@@H](N)CCC(N)=O)C(=O)N[C@@H](CO)C(=O)N[C@@H](CCCNC(=N)N)C(=O)N[C@H]1CSSC[C@@H](C(=O)N[C@H](C(=O)N[C@@H](CCCCN)C(=O)N[C@@H](Cc2ccc(O)cc2)C(=O)N[C@@H](CO)C(=O)O)C(C)C)NC(=O)[C@H](C(C)C)NC(=O)[C@H](CCC(N)=O)NC1=O` [QS-13, QKISRCQVCVKYS] (H-QKISRCQVCVKYS-OH; disulfide 6-9): binding at α5β1 integrin [4] was characterised by a dissociation constant (Kd) of 20.3 ± 7.5 nM. “α5β1 integrin (recombinant, R&D Systems 3230-A5-050) (from UniProt P08648 42-1049; P05556 21-728) (receptor)” came in with an equilibrium dissociation constant (Kd) in test [5] of 20.3 nM. This counts as double-digit nanomolar. “QKISRCQVCVKYSK-biot (disulfide) [biotinylated-QS-13]”: the “binding to α5β1 integrin” value on α5β1 integrin [6] is reported as “binds to α5β1 integrin in a ligand concentration dependent manner”.

B1: endostatin: 20-kDa C-terminal fragment of type XVIII collagen (protein, UniProt P39060 1572-1754, looked up)
Endostatin: HSHRDFQPVLHLVALNSPLSGGMRGIRGADFQCFQQARAVGLAGTFRAFLSSRLQDLYSIVRRADRAAVPIVNLKDELLFPSWEALFSGSEGPLKPGARIFSFDGKDVLRHPTWPQKSVWHGSDPNGRRLTESYCETWRTEAPSATGQASSLLGGRLLGQSAASCHHAYIVLCIENSFMTASK
modifications: Endostatin
notes: 20-kDa C-terminal fragment of type XVIII collagen
B1: the “effect on α5β1 integrin” value with α5β1 integrin [7] was “inhibit α5β1 integrin”. For the same molecule, the “clinical results with chemotherapies and radiotherapies” value in the test on cancer patients (combination, ref Alday-Parejo et al., 2019) is reported as “the results were inconsistent”.

B2: Tumstatin: the α3(IV) NC1 domain (protein, UniProt Q01955 1426-1670, looked up)
Tumstatin: PGLKGKRGDSGSPATWTTRGFVFTRHSQTTAIPSCPEGTVPLYSGFSFLFVQGNQRAHGQDLGTLGSCLQRFTTMPFLFCNVNDVCNFASRNDYSYWLSTPALMPMNMAPITGRALEPYISRCTVCEGPAIAIAVHSQTTDIPPCPHGWISLWKGFSFIMFTSAGSEGTGQALASPGSCLEEFRASPFLECHGRGTCNYYSNSYSFWLASLNPERMFRKPIPSTVKAGELEKIISRCQVCMKKRH
modifications: Tumstatin
notes: the α3(IV) NC1 domain
In the case of B2, in the test with angiogenesis, the effect on angiogenesis entry is “inhibit angiogenesis”. The “integrin mediating anti-tumor activity” value with αvβ3 integrin is listed as “mediated through binding to αvβ3 integrin”.

B3: Arresten: the α1(IV) NC1 domain (protein, UniProt P02462 1445-1669, looked up)
Arresten: GFLVTRHSQTIDDPQCPSGTKILYHGYSLLYVQGNERAHGQDLGTAGSCLRKFSTMPFLFCNINNVCNFASRNDYSYWLSTPEPMPMSMAPITGENIRPFISRCAVCEAPAMVMAVHSQTIQIPPCPSGWSSLWIGYSFVMHTSAGAEGSGQALASPGSCLEEFRSAPFIECHGRGTCNYYANAYSFWLATIERSEMFKKPTPSTLKAGELRTHVSRCQVCMRRT
modifications: Arresten
notes: the α1(IV) NC1 domain
Regarding B3, the effect on angiogenesis entry in the test on angiogenesis was “inhibit angiogenesis”.

B4: Canstatin: the α2(IV) NC1 domain (protein, UniProt P08572 1486-1712, looked up)
Canstatin: VSIGYLLVKHSQTDQEPMCPVGMNKLWSGYSLLYFEGQEKAHNQDLGLAGSCLARFSTMPFLYCNPGDVCYYASRNDKSYWLSTTAPLPMMPVAEDEIKPYISRCSVCEAPAIAIAVHSQDVSIPHCPAGWRSLWIGYSFLMHTAAGDEGGGQSLVSPGSCLEDFRATPFIECNGGRGTCHYYANKYSFWLTTIPEQSFQGSPSADTLKAGLIRTHISRCQVCMKNL
modifications: Canstatin
notes: the α2(IV) NC1 domain
Consider B4, for which the effect on angiogenesis entry in the test with angiogenesis is “inhibit angiogenesis”.
